This data set in a line: Cleavage of conjugate in potassium phosphate buffer and rat serum. Type of data set: in vitro ADME. As to conditions: potassium phosphate buffer pH 7.4 and rat serum (1:1), 37° C., overnight incubation. The protocol: A mixture of compound (26) (2.9 mg) in potassium phosphate buffer (1.0 mL, pH 7.4) and rat serum (1.0 mL, Aleken Biologicals) was incubated at 37° C.

Turning to “L-glutathione N^2-CBZ-lysine conjugate [Compound 26]”, the “Cleavage (hydrolysis) of conjugate releasing N^2-(carbobenzyloxy)-L-lysine” value was “hydrolysis of compound (26) to yield N^2-(carbobenzyloxy)-L-lysine was observed”.

The values are drawn from US9695189B2, “Chemical crosslinkers and compositions thereof” (priority 2013, dated 2017).
